This series deals with T1, Rfx3 (in vitro translated) (UniProt P48381 1-749).
T1 sequence: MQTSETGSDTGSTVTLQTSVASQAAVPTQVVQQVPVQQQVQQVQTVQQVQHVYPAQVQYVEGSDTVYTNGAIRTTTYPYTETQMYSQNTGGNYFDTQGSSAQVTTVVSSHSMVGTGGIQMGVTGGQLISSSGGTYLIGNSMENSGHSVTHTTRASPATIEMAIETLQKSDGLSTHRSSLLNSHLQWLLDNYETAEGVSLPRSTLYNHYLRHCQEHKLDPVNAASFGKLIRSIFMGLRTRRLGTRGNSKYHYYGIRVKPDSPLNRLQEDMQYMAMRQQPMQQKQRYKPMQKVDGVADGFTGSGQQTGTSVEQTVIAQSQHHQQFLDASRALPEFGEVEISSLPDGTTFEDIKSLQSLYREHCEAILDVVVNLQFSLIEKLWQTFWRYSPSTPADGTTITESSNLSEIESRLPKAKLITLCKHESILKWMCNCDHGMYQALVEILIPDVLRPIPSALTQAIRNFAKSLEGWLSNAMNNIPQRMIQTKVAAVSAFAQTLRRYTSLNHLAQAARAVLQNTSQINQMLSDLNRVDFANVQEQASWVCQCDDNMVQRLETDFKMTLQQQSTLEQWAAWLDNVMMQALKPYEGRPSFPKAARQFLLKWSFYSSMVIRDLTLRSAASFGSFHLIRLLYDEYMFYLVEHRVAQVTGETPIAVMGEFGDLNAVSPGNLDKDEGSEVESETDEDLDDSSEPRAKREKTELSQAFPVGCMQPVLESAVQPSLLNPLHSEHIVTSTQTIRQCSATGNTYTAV
The series can be described thus: EMSA.

B1: Pal-2 wild type (dsDNA)
DNA 1: GGCAATGGTCACCATAGAAACCACAG
DNA 2: GGCTGTGGTTTCTATGGTGACCATTG
B1: the binding result was “binds”.

B2: Pal-1 wild type (dsDNA)
DNA 1: GGGAGTGGTCACCATGGTGACAGGAG
DNA 2: GGCTCCTGTCACCATGGTGACCACTC
On to B2, for which the binding result was “binds”.

For the origin of these results see article PMC2889767.
